“Also recorded” adds a separate entry of the source.
Tests used:
Format in all cases: in vivo, human
[1] = test system: patients with type 2 diabetes mellitus (T2DM); test: Hemoglobin A1c in clinical dose escalation study of ACZ885 i.v. in T2DM patients on metformin
Protocol: The hemoglobin A1c assay is performed at Covance Central Laboratory Services (CLS) on the FDA-approved Bio-Rad Variant™ analyzer. This analyzer utilizes the principles of ion-exchange high performance liquid chromatography (HPLC) and microcomputer technology. Detection is performed at two wavelengths, 415 nm and 690 nm, to insure a stable baseline. A chromatogram of the changes in the absorbance is plotted versus the retention time. Each chromatogram printout is accompanied by a report identifying each peak detected, plus the relative percent and retention times of each peak. The method has an inter-assay precision of 1.7-2.1% CV, and an intra-assay precision of 0.9-1.1% (determined by assaying 15 replicate assays of a sample then evaluating the coefficient of variation). A multi center, randomized, double blind, placebo-controlled, dose escalation study of the safety, tolerability, pharmacokinetics and pharmacodynamics of ACZ885 administered intravenously to patients with type 2 diabetes mellitus. The aim of the study is to compare the pharmacokinetic and pharmacodynamic effects of five doses (i.v. administration) of ACZ885 with placebo in patients with type 2 diabetes mellitus (T2DM). […] OGTT was administered at Baseline, 4 and 12 wk post-dose. […]

[2] = test system: patients with type 2 diabetes mellitus (T2DM); test: High sensitive C-reactive protein (hsCRP) in clinical study of ACZ885 in T2DM patients on metformin; conditions: single i.v. dose 0.03, 0.1, 0.3, 1.5 mg/kg, Week 4, on stable metformin
Protocol: CRP is one of the “acute phase” proteins, the serum or protein levels of which rise during general, nonspecific response to infectious and non-infectious inflammatory processes such as rheumatoid arthritis, cardiovascular disease and peripheral vascular disease. CRP is synthesized in the liver and is present in trace amounts in serum or plasma. The C-Reactive Protein HS assay is performed at Covance Central Laboratory Services by immunonephelometry using the Siemens BNII Nephelometer. Polystyrene particles coated with monoclonal antibodies to CRP are agglutinated when mixed with samples containing CRP. The intensity of the scattered light in the nephelometer depends on the CRP content of the sample and therefore the CRP concentration can be determined versus dilutions of a standard of a known concentration The method has an inter-assay precision of 2.1-5.7% CV, and an intra-assay precision of 2.3-4.4% (determined by assaying 10 replicate assays of a sample then evaluating the coefficient of variation). CRP accuracy is evaluated by comparison with College of American Pathologists (CAP) Cardiac Risk Survey. A multi center, randomized, double blind, placebo-controlled, dose escalation study of the safety, tolerability, pharmacokinetics and pharmacodynamics of ACZ885 administered intravenously to patients with type 2 diabetes mellitus. […]

[3] = test system: patients with type 2 diabetes mellitus (T2DM); test: Plasma glucose (fasting and OGTT) in clinical study of ACZ885 in T2DM patients on metformin
Protocol: The glucose assay is a hexokinase enzymatic method. Hexokinase catalyzes the phosphorylation of glucose with adenosine triphosphate. The glucose-6-phosphate is then oxidized to 6-phosphogluconate in the presence of NAD by the enzyme glucose-6-phosphate dehydrogenase. The amount of NADPH formed during the reaction is equivalent to the amount of D-glucose in the specimen and is measured photometrically by the increase in absorbance. The method has an inter-assay precision of 5.1-6.2% CV, and an intra-assay precision of 1.7-2.5% (determined by assaying 50 replicate assays of a sample then evaluating the coefficient of variation). The method is specific for glucose; no other carbohydrate is oxidized. A multi center, randomized, double blind, placebo-controlled, dose escalation study of the safety, tolerability, pharmacokinetics and pharmacodynamics of ACZ885 administered intravenously to patients with type 2 diabetes mellitus. The aim of the study is to compare the pharmacokinetic and pharmacodynamic effects of five doses (i.v. administration) of ACZ885 with placebo in patients with type 2 diabetes mellitus (T2DM). […] OGTT was administered at Baseline, 4 and 12 wk post-dose. The subsequent cohorts were included in the evaluation of pharmacodynamic, pharmacokinetis, pharmacogenomics and pharmacogenetics. • Cohort 2 (n=90; 1:1=ACZ885:Plb): received a single dose of ACZ885 (10 mg/kg) or placebo. • Cohort 3 (n=96) received a single dose of ACZ885 0.1, 0.3, 1.5 mg/kg or placebo (1:1:1:1). • Cohort 4 (n=30; 2:1=ACZ885:P1b) received a single dose of ACZ885 (0.03 mg/kg) or placebo. The study was designed to follow the patients for 24 weeks (168 days) after the single intravenous (i.v.) administration. An analysis of covariance (ANCOVA) with treatment as the classification variable and baseline as the covariate will be used for the comparison of treatments with respect to these parameters.

B1: ACZ885: anti-IL1β antibody, also referred to as Canakinumab; variable domains shown in SEQ ID NO:1 (VH) and SEQ ID NO:2 (VL) (antibody, V domains shown)
VH: QVQLVESGGGVVQPGRSLRLSCAASGFTFSVYGMNWVRQAPGKGLEWVAIIWYDGDNQYYADSVKGRFTISRDNSKNTLYLQMNGLRAEDTAVYYCARDLRTGPFDYWGQGTLVTVSS
VL: EIVLTQSPDFQSVTPKEKVTITCRASQSIGSSLHWYQQKPDQSPKLLIKYASQSFSGVPSRFSGSGSGTDFTLTINSLEAEDAAAYYCHQSSSLPFTFGPGTKVDIK
modifications: homo sapiens
- hemoglobin A1c (HbA1c) ([1]; single i.v. dose 1.5 mg/kg, Week 4, T2DM subjects on stable metformin, versus placebo, 1.5 mg/kg): statistically significant decreased; also recorded: Significant reduction
- reduction in HbA1c ([1]; single i.v. dose 10 mg/kg, Week 4 to Week 12, p=0.032): −0.32%
- high-sensitivity C-reactive protein (hsCRP), dose response [2]: linear reduction (dose proportional); also recorded: linear decreasing trend
- OGTT glucose AUC0-4 h / post-prandial glucose ([3]; dose escalation, Week 4 post-dose, versus placebo): Positive trends consistent with dose escalation; also recorded: positive trend at Week 4 post-dose, albeit not statistically significant
- postprandial glucose (OGTT) compared to placebo ([3]; single dose 10 mg/kg, 4 weeks): significant reduction
- peak plasma glucose (PPG) following OGTT ([3]; single i.v. dose 10 mg/kg, Week 4, versus placebo in change from baseline, 10 mg/kg): statistically significant; also recorded: reduction
- fasting plasma glucose (FPG) ([3]; single i.v. dose 10 mg/kg, Week 4 post-dose, 10 mg/kg): decrease
- peak plasma glucose (PPG) following OGTT ([3]; single i.v. dose 10 mg/kg, Week 12): maintained
- plasma AUC glucose following OGTT ([3]; single i.v. dose 10 mg/kg, four weeks after treatment, on stable metformin): statistically significant decreased
- fasting plasma glucose (FPG), course of effect ([3]; single i.v. dose 10 mg/kg, from Week 4 to Week 12): attenuated
